{"source": "the supplement of paper PMC9112550", "about": "“Optimization of the antimicrobial peptide Bac7 by deep mutational scanning” (BMC Biology, 2022);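 further: peptides expressed intracellularly from a pBAD plasmid library in pooled LB shake-flask culture, induced with 0.3% L-arabinose, DNA abundance read by NGS, three biological replicates, DESeq2 with apeglm shrinkage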"}
{"test_system": "Escherichia coli TOP10", "assay": "shrunken log2 fold change of peptide-encoding DNA abundance (4.5 h post-induction vs induction); higher = less antimicrobial activity (less host growth inhibition)", "conditions": "time post-induction: 4.5 h; library: site-saturation at positions 5, 18, 19, 20"}
{"sequence": "RRIRQRPPRLPRPRPRPVDTPRP", "shrunken log2 fold change": -0.183}
{"sequence": "RRIRARPPRLPRPRPRPVWAPRP", "shrunken log2 fold change": 0.305}
{"sequence": "RRIRSRPPRLPRPRPRPTLWPRP", "shrunken log2 fold change": 0.448}
{"sequence": "RRIRWRPPRLPRPRPRPWFSPRP", "shrunken log2 fold change": 0.0565}
{"sequence": "RRIRERPPRLPRPRPRPGHNPRP", "shrunken log2 fold change": -0.115}
{"sequence": "RRIRNRPPRLPRPRPRPLHDPRP", "shrunken log2 fold change": -0.178}
{"sequence": "RRIRTRPPRLPRPRPRPFTEPRP", "shrunken log2 fold change": -0.21}
{"sequence": "RRIRTRPPRLPRPRPRPCYIPRP", "shrunken log2 fold change": -0.226}
{"sequence": "RRIRSRPPRLPRPRPRPMWVPRP", "shrunken log2 fold change": -0.0635}
{"sequence": "RRIRPRPPRLPRPRPRPWCTPRP", "shrunken log2 fold change": -0.218}
{"sequence": "RRIRLRPPRLPRPRPRPRMDPRP", "shrunken log2 fold change": -0.106}
{"sequence": "RRIRMRPPRLPRPRPRPEATPRP", "shrunken log2 fold change": 4.04}
{"sequence": "RRIRSRPPRLPRPRPRPIYYPRP", "shrunken log2 fold change": -0.641}
{"sequence": "RRIRMRPPRLPRPRPRPQIQPRP", "shrunken log2 fold change": -0.0708}
{"sequence": "RRIRRRPPRLPRPRPRPAFCPRP", "shrunken log2 fold change": 0.404}
{"sequence": "RRIRERPPRLPRPRPRPDKTPRP", "shrunken log2 fold change": -0.0128}
{"sequence": "RRIRNRPPRLPRPRPRPGENPRP", "shrunken log2 fold change": 0.185}
{"sequence": "RRIRIRPPRLPRPRPRPCLSPRP", "shrunken log2 fold change": -0.0164}
{"sequence": "RRIRTRPPRLPRPRPRPSKRPRP", "shrunken log2 fold change": -0.325}
{"sequence": "RRIRQRPPRLPRPRPRPTGDPRP", "shrunken log2 fold change": 0.349}
{"sequence": "RRIRFRPPRLPRPRPRPLNDPRP", "shrunken log2 fold change": -0.839}
{"sequence": "RRIRHRPPRLPRPRPRPIAAPRP", "shrunken log2 fold change": -0.0333}
{"sequence": "RRIRYRPPRLPRPRPRPLGTPRP", "shrunken log2 fold change": -0.227}
{"sequence": "RRIRKRPPRLPRPRPRPRTIPRP", "shrunken log2 fold change": 0.262}
{"sequence": "RRIRHRPPRLPRPRPRPFYQPRP", "shrunken log2 fold change": -0.389}
{"sequence": "RRIRCRPPRLPRPRPRPEPVPRP", "shrunken log2 fold change": 0.0937}
{"sequence": "RRIRIRPPRLPRPRPRPLCIPRP", "shrunken log2 fold change": -0.484}
{"sequence": "RRIRARPPRLPRPRPRPKLCPRP", "shrunken log2 fold change": 0.225}
{"sequence": "RRIRNRPPRLPRPRPRPKCDPRP", "shrunken log2 fold change": -0.471}
{"sequence": "RRIRIRPPRLPRPRPRPNIMPRP", "shrunken log2 fold change": -0.947}
{"sequence": "RRIRARPPRLPRPRPRPDRSPRP", "shrunken log2 fold change": -0.0282}
{"sequence": "RRIRHRPPRLPRPRPRPCWLPRP", "shrunken log2 fold change": -0.0661}
{"sequence": "RRIRIRPPRLPRPRPRPSSYPRP", "shrunken log2 fold change": -0.207}
{"sequence": "RRIRRRPPRLPRPRPRPRPGPRP", "shrunken log2 fold change": 0.557}
{"sequence": "RRIRPRPPRLPRPRPRPRLQPRP", "shrunken log2 fold change": 0.176}
{"sequence": "RRIRMRPPRLPRPRPRPHLNPRP", "shrunken log2 fold change": 0.176}
{"sequence": "RRIRQRPPRLPRPRPRPGDWPRP", "shrunken log2 fold change": 0.866}
{"sequence": "RRIRKRPPRLPRPRPRPPAPPRP", "shrunken log2 fold change": 1.14}
{"sequence": "RRIRYRPPRLPRPRPRPICLPRP", "shrunken log2 fold change": -0.219}
{"sequence": "RRIRERPPRLPRPRPRPPCIPRP", "shrunken log2 fold change": -0.163}
{"sequence": "RRIRDRPPRLPRPRPRPANNPRP", "shrunken log2 fold change": -0.218}
{"sequence": "RRIRWRPPRLPRPRPRPRCPPRP", "shrunken log2 fold change": 0.264}
{"sequence": "RRIRARPPRLPRPRPRPCVQPRP", "shrunken log2 fold change": 0.217}
{"sequence": "RRIRWRPPRLPRPRPRPIGEPRP", "shrunken log2 fold change": 0.0833}
{"sequence": "RRIRPRPPRLPRPRPRPTLHPRP", "shrunken log2 fold change": 0.0853}
{"sequence": "RRIRPRPPRLPRPRPRPKDVPRP", "shrunken log2 fold change": -0.115}
{"sequence": "RRIRLRPPRLPRPRPRPWLSPRP", "shrunken log2 fold change": -0.0106}
{"sequence": "RRIRIRPPRLPRPRPRPRQRPRP", "shrunken log2 fold change": 0.211}
{"sequence": "RRIRFRPPRLPRPRPRPYIFPRP", "shrunken log2 fold change": -0.829}
{"sequence": "RRIRQRPPRLPRPRPRPIPRPRP", "shrunken log2 fold change": 0.145}
{"sequence": "RRIRHRPPRLPRPRPRPVKGPRP", "shrunken log2 fold change": -0.079}
{"sequence": "RRIRERPPRLPRPRPRPVVKPRP", "shrunken log2 fold change": -0.413}
{"sequence": "RRIRLRPPRLPRPRPRPNSTPRP", "shrunken log2 fold change": -0.294}
{"sequence": "RRIRQRPPRLPRPRPRPGIMPRP", "shrunken log2 fold change": -0.0424}
{"sequence": "RRIRHRPPRLPRPRPRPVKFPRP", "shrunken log2 fold change": -0.0191}
{"sequence": "RRIRGRPPRLPRPRPRPHHLPRP", "shrunken log2 fold change": 0.374}
{"sequence": "RRIRIRPPRLPRPRPRPERNPRP", "shrunken log2 fold change": 0.146}
{"sequence": "RRIRWRPPRLPRPRPRPPVMPRP", "shrunken log2 fold change": 0.00935}
{"sequence": "RRIRRRPPRLPRPRPRPNTFPRP", "shrunken log2 fold change": 0.085}
{"sequence": "RRIRWRPPRLPRPRPRPGFWPRP", "shrunken log2 fold change": 0.494}
{"sequence": "RRIRYRPPRLPRPRPRPTPQPRP", "shrunken log2 fold change": 0.161}
{"sequence": "RRIRPRPPRLPRPRPRPDCPPRP", "shrunken log2 fold change": -0.0368}
{"sequence": "RRIRTRPPRLPRPRPRPNYCPRP", "shrunken log2 fold change": -0.0491}
{"sequence": "RRIRPRPPRLPRPRPRPMMLPRP", "shrunken log2 fold change": -0.143}
{"sequence": "RRIRFRPPRLPRPRPRPTYPPRP", "shrunken log2 fold change": -0.497}
{"sequence": "RRIRFRPPRLPRPRPRPPLSPRP", "shrunken log2 fold change": 0.133}
{"sequence": "RRIRERPPRLPRPRPRPNTSPRP", "shrunken log2 fold change": 0.37}
{"sequence": "RRIRKRPPRLPRPRPRPSAKPRP", "shrunken log2 fold change": 0.397}
{"sequence": "RRIRDRPPRLPRPRPRPWFYPRP", "shrunken log2 fold change": -0.0139}
{"sequence": "RRIRIRPPRLPRPRPRPSPGPRP", "shrunken log2 fold change": -0.552}
{"sequence": "RRIRCRPPRLPRPRPRPDSKPRP", "shrunken log2 fold change": -0.657}
{"sequence": "RRIRMRPPRLPRPRPRPWHTPRP", "shrunken log2 fold change": 0.0985}
{"sequence": "RRIRLRPPRLPRPRPRPCDKPRP", "shrunken log2 fold change": -0.304}
{"sequence": "RRIRFRPPRLPRPRPRPICIPRP", "shrunken log2 fold change": -0.399}
{"sequence": "RRIRGRPPRLPRPRPRPAWAPRP", "shrunken log2 fold change": 0.854}
{"sequence": "RRIRCRPPRLPRPRPRPSAVPRP", "shrunken log2 fold change": -0.0828}
{"sequence": "RRIRRRPPRLPRPRPRPPDWPRP", "shrunken log2 fold change": 0.618}
{"sequence": "RRIRLRPPRLPRPRPRPCLAPRP", "shrunken log2 fold change": -0.219}
{"sequence": "RRIRIRPPRLPRPRPRPANLPRP", "shrunken log2 fold change": -0.584}
{"sequence": "RRIRNRPPRLPRPRPRPSDMPRP", "shrunken log2 fold change": -0.117}
{"sequence": "RRIRRRPPRLPRPRPRPFSEPRP", "shrunken log2 fold change": -0.0505}
{"sequence": "RRIRQRPPRLPRPRPRPVGGPRP", "shrunken log2 fold change": 2.52}
{"sequence": "RRIRWRPPRLPRPRPRPLHFPRP", "shrunken log2 fold change": 0.136}
{"sequence": "RRIRSRPPRLPRPRPRPFWMPRP", "shrunken log2 fold change": -0.293}
{"sequence": "RRIRHRPPRLPRPRPRPPCKPRP", "shrunken log2 fold change": -0.196}
{"sequence": "RRIRYRPPRLPRPRPRPEIPPRP", "shrunken log2 fold change": 0.0336}
{"sequence": "RRIRQRPPRLPRPRPRPWWGPRP", "shrunken log2 fold change": 0.0786}
{"sequence": "RRIRMRPPRLPRPRPRPCPFPRP", "shrunken log2 fold change": -0.241}
{"sequence": "RRIRIRPPRLPRPRPRPVTVPRP", "shrunken log2 fold change": 0.129}
{"sequence": "RRIRHRPPRLPRPRPRPWTNPRP", "shrunken log2 fold change": -0.101}
{"sequence": "RRIRFRPPRLPRPRPRPTFYPRP", "shrunken log2 fold change": -0.366}
{"sequence": "RRIRKRPPRLPRPRPRPYYWPRP", "shrunken log2 fold change": -0.281}
{"sequence": "RRIRLRPPRLPRPRPRPYLGPRP", "shrunken log2 fold change": -0.425}
{"sequence": "RRIRPRPPRLPRPRPRPQICPRP", "shrunken log2 fold change": -0.0262}
{"sequence": "RRIRYRPPRLPRPRPRPSSKPRP", "shrunken log2 fold change": -1}
{"sequence": "RRIRYRPPRLPRPRPRPKKYPRP", "shrunken log2 fold change": -0.86}
{"sequence": "RRIRSRPPRLPRPRPRPEYYPRP", "shrunken log2 fold change": 0.0495}
{"sequence": "RRIRQRPPRLPRPRPRPICYPRP", "shrunken log2 fold change": 0.0933}
{"sequence": "RRIRDRPPRLPRPRPRPYDSPRP", "shrunken log2 fold change": -0.0305}
{"sequence": "RRIRRRPPRLPRPRPRPEYPPRP", "shrunken log2 fold change": -0.137}
{"sequence": "RRIRARPPRLPRPRPRPDDRPRP", "shrunken log2 fold change": -0.149}
{"sequence": "RRIRYRPPRLPRPRPRPSRGPRP", "shrunken log2 fold change": -0.0776}
{"sequence": "RRIRIRPPRLPRPRPRPWHYPRP", "shrunken log2 fold change": -0.111}
{"sequence": "RRIRARPPRLPRPRPRPVAQPRP", "shrunken log2 fold change": 0.661}
{"sequence": "RRIRTRPPRLPRPRPRPIKTPRP", "shrunken log2 fold change": -0.0452}
{"sequence": "RRIRYRPPRLPRPRPRPKTKPRP", "shrunken log2 fold change": -0.295}
{"sequence": "RRIRTRPPRLPRPRPRPRPGPRP", "shrunken log2 fold change": 0.621}
{"sequence": "RRIRPRPPRLPRPRPRPRDKPRP", "shrunken log2 fold change": 0.144}
{"sequence": "RRIRMRPPRLPRPRPRPNHCPRP", "shrunken log2 fold change": 0.0039}
